Assay results from US20240052061A1 (published 2024).

Columns and labels:
[1] = molecular target: T1, human ecto-nucleoside triphosphate diphosphohydrolase-3 (NTPDase3) (human, UniProt O75355 1-529); assay: flow cytometry; CHO-hENTPD3 cells
T1 chain: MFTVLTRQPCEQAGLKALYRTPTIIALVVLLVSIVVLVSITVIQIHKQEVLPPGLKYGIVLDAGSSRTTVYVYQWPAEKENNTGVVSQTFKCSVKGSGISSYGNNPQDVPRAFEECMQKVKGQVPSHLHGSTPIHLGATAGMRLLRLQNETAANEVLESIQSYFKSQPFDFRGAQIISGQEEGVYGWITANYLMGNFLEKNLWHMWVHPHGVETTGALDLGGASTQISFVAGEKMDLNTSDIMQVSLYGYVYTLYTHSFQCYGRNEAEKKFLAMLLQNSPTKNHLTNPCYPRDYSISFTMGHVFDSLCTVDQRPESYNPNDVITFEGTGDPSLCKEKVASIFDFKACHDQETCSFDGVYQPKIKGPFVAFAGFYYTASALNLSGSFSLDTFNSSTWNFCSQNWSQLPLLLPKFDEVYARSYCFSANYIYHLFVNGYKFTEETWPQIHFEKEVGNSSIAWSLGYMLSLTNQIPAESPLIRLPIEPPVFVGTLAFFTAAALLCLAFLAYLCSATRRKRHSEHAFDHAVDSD

[2] = molecular target: T1, human ecto-nucleoside triphosphate …; assay: flow cytometry; COS7-hENTPD3 cells
[3] = molecular target: T1, human ecto-nucleoside triphosphate …; assay: flow cytometry; RT4 cells
[4] = molecular target: T1, human ecto-nucleoside triphosphate …; assay: flow cytometry; CHO-hENTPD3 cells
[5] = molecular target: T1, human ecto-nucleoside triphosphate …; assay: flow cytometry; COS7-hENTPD3 cells
[6] = molecular target: T1, human ecto-nucleoside triphosphate …; assay: flow cytometry; HEK293T-hENTPD3 cells
[7] = molecular target: T1, human ecto-nucleoside triphosphate …; assay: flow cytometry; CHO-hENTPD3 cells, 20 min at 4°C

Binder	Kd [1] [nM]	Kd [2] [nM]	Kd [3] [nM]	Kd [4] [nM]	Kd [5] [nM]	Kd [6] [nM]	Kd [7] [nM]
PBI #30af8 hIgG1 (antibody, V domains shown) VH: QVQLQESGGGLIQPGGSLRLSCAASGFQSDSSDYAMSWVRQAPGKGLEWVSSISGTGGSTYYADSVKGRFTISRDNSKNTLYVQMTSLTAEDTAVYYCAKVVGFSTYDYYYHYALDVWGQGTTVTVSS VL: QPVLTQPPSASGTPGQRVTISCSGSSSNIGSNTVNWYQQLPGTAPKLLIYSDDQRPSGVPDRFSGSKSGTSASLTISGLKTEDEAGYYCQSYDTSNVVFGGGTKVTVL	1.8	1.26	–	–	–	–	–
37H1 Hu/Ra (antibody, V domains shown) VH: QSVEESGGRLVTPGTPLTLTCTVSGFSLSSYAVGWVRQAPGKGLEFIGIITYNGATYYASWAEGRFPISKTSSTTVDLKMTSPTTEDTATYFCARARYGGYSTNSYYLNIWGPGTLVTVSS VL: DVVMTQTPASVSAAVGGTVTINCQASENIYRILAWYQQKPGQRPKLLIYGASNLETGVPSRFKGSGSGTEYTLTISDLECDDAATYYCQGVLWNSNDSTFGGGTEVVVKG	–	–	0.16	2.26	0.54	1.4	–
44H5 Hu/Ra (antibody, V domains shown) VH: QEQLEESGGDLVKPEGSLTLTCTASGFDSSSTYYMCWVRQAPGKGLEWSGCIYTGGLTYYASWAKGRFTISKTSSTTVTLQMTSLTAADTATYFCASYIGSRFYMPGFSLWGPGTLVTVSS VL: AIVMTQTPSSKSVPVGDTVTINCQASESIYSNNRLAWFQQKPGQPPKLLIYLASTLASGVPSRFKGSGSGTQFTLTISDVVCDDAATYYCAGYKGSSTDGTAFGGGTEVVVKG	–	–	1.15	0.95	0.3	0.15	–
4F9 Hu/Ra (antibody, V domains shown) VH: QSVEESGGRLVTPGTPLTLTCTVSGFSLSSYAMGWVRQAPGKGLEFIGIITYNGNTYYASWAKGRFPISKTSSTTVDLKMTSPTTEDTATYFCARARYGGYSTNSYYLNIWGPGTLVTVSS VL: DVVMTQTPASVSAAVGGTVTINCQASENIYRILAWYQQKPGQRPKLLIYGASNLETGVPSRFKGSGSGTEYTLTISDLECDDAATYYCQGVLYNSNDSTFGGGTEVVVKG	–	–	0.19	1.52	0.45	0.46	–
3E9 Hu/Ra (antibody, V domains shown) VH: QSLEESGGDLVKPGASLTLTCTASGFSFSSSDWICWVRQAPGKGLEWIACIYAGSIGGAYFASWVNGRFTISRASSTTVTLQMTSLTAADTATYFCARSSSNGRLKLDQFDLWGPGTLVTVSS VL: AYDMTQTPASVEVAVGGTVTINCQASQSIGGWLSWYRQKPGQPPSLLIYKASTLASGVSSRFSGTGSRTHFTLTINGVQCADAATYYCQQGSAADVANTFGGGTEVVVKG	–	–	–	1.94	0.63	1.79	–
42D8 Hu/Ra (antibody, V domains shown) VH: QSVEESGGRLVTPGTPLTLTCTVSGFSLSSYAMGWVRQAPGKGLEFIGIITYNSNTYYANWAKGRFPISKTSSTTVDLKMTSPTTEDTATYFCARARYGGYSTNSYYLNIWGPGTLVTVSS VL: DVVMTQTPASVSAAVGGTVTINCQASENIYRILAWYQQKPGQPPKLLIYGASNLETGVPSRFKGSGSGTEYTLTISDLECDDAATYYCQGVLYNSNDSTFGGGTEVVVKG	–	–	–	1.96	0.64	0.55	–
PBI #30af4 hIgG4 (antibody, V domains shown) VH: QVQLQESGGGLIQPGGSLRLSCAASGFTSSSSDYAMSWVRQAPGKGLEWVSSISGSGVSTYYADSVKGRFTISRDNSKNTLYVQMTSLTAEDTAVYYCAKVVGYSVYDYYYHYALDVWGQGTTVTVSS VL: QPVLTQPPSASGTPGQRVTISCSGSSSNIGSNTVNWYQQLPGTAPKLLIYSDNQRPSGVPDRFSGSKSGTSASLTISGLKTEDEAGYYCQSDDTSNVVFGGGTKVTVL	1.82	1.28	–	–	–	–	–
PBI #30af8 hIgG4 (antibody, V domains shown) VH: QVQLQESGGGLIQPGGSLRLSCAASGFQSDSSDYAMSWVRQAPGKGLEWVSSISGTGGSTYYADSVKGRFTISRDNSKNTLYVQMTSLTAEDTAVYYCAKVVGFSTYDYYYHYALDVWGQGTTVTVSS VL: QPVLTQPPSASGTPGQRVTISCSGSSSNIGSNTVNWYQQLPGTAPKLLIYSDDQRPSGVPDRFSGSKSGTSASLTISGLKTEDEAGYYCQSYDTSNVVFGGGTKVTVL	1.9	1.43	–	–	–	–	–
16D4 Hu/Ra (antibody, V domains shown) VH: QSVEESGGRLVTPGTPLTLTCTVSGFSLSSYAMGWVRQAPGKGLEFIGIITYNGGTYYASWAKGRFPISKTSSTTVDLKMTSPTTEDTATYFCARARYGGYSTNSYYLNIWGPGTLVTVSS VL: DVVMTQTPASVSAAVGGTVTINCQASENIYRVLAWYQQKPGQRPKLLIYGASNLETGVPSRFKGSGSGTEYTLTISDLECDDAATYYCQGVLYDNNDSTFGGGTEVVVKG	–	–	0.2	1.94	0.8	0.38	–
PBI #30af6 hIgG4 (antibody, V domains shown) VH: QVQLQESGGGLIQPGGSLRLSCAASGFTSSSSDYAMSWVRQAPGKGLEWVSSISGSGGSTYYADSVKGRFTISRDNSKNTLYVQMTSLTAEDTAVYYCAKVFGYSMYDYYYHYALDVWGQGTTVTVSS VL: QPVLTQPPSASGTPGQRITISCSGSSSNIGSNTVNWYQQLPGTAPKLLIYSNNQRPSGVPDRFSGSKSGTSASLTISGLKTEDEAGYYCQSDDTSNVVFGGGTKVTVL	2.18	1.58	–	–	–	–	–
PBI #30 hIgG1 (antibody, V domains shown) VH: QVQLQESGGGLIQPGGSLRLSCAASGFTSSSSDYAMSWVRQAPGKGLEWVSSISGSGGSTYYADSVKGRFTISRDNSKNTLYVQMTSLTAEDTAVYYCAKVVGYSMYDYYYHYALDVWGQGTTVTVSS VL: QPVLTQPPSASGTPGQRVTISCSGSSSNIGSNTVNWYQQLPGTAPKLLIYSNNQRPSGVPDRFSGSKSGTSASLTISGLKTEDEAGYYCQSYDTSNVVFGGGTKVTVLG	1.64	–	–	–	–	–	20.9
PBI #30af6 hIgG1 (antibody, V domains shown) VH: QVQLQESGGGLIQPGGSLRLSCAASGFTSSSSDYAMSWVRQAPGKGLEWVSSISGSGGSTYYADSVKGRFTISRDNSKNTLYVQMTSLTAEDTAVYYCAKVFGYSMYDYYYHYALDVWGQGTTVTVSS VL: QPVLTQPPSASGTPGQRITISCSGSSSNIGSNTVNWYQQLPGTAPKLLIYSNNQRPSGVPDRFSGSKSGTSASLTISGLKTEDEAGYYCQSDDTSNVVFGGGTKVTVL	1.85	1.63	–	–	–	–	–
PBI #30af7 hIgG1 (antibody, V domains shown) VH: QVQLQESGGGLIQPGGSLRLSCAASGFTTSSSDYAMSWVRQAPGKGLEWVSSISGSGGSTYYADSVKGRFTISRDNSKNTLYVQMTSLTAEDTAVYYCAKDVGYSTYDYYYHYALDVWGQGTTVTVSS VL: QPVLTQPPSASGTPGQRVTISCSGSSSNVGSNTVNWYQQLPGTAPKLLIYSNNQRPSGVPDRFSGSKSGTSASLTISGLKTEDEAGYYCQSYDTSNVVFGGGTKVTVL	1.87	1.68	–	–	–	–	–
38D12 Hu/Ra (antibody, V domains shown) VH: QSVEESGGRLVTPGTPLTLTCTVSGFSLSSYVINWVRQAPGKGLEWIGTISSSGSTYYASWAKGRFTISTTSSTTVDLKITSPTTEDTATYFCARGADGAFISDYFNIWGPGTLVTVSS VL: DIVMTQTPSSVSAAVGGTVTIKCQANENIDSWLAWYQQKPGQRPKLLIYYASTLASGVPSRFKGSGSGTEYTLTISDLECADGATYYCQSYDTISDYGVGFGGGTEVVVKG	–	–	2.63	8.3	2.8	3.06	–
PBI #30af4 hIgG1 (antibody, V domains shown) VH: QVQLQESGGGLIQPGGSLRLSCAASGFTSSSSDYAMSWVRQAPGKGLEWVSSISGSGVSTYYADSVKGRFTISRDNSKNTLYVQMTSLTAEDTAVYYCAKVVGYSVYDYYYHYALDVWGQGTTVTVSS VL: QPVLTQPPSASGTPGQRVTISCSGSSSNIGSNTVNWYQQLPGTAPKLLIYSDNQRPSGVPDRFSGSKSGTSASLTISGLKTEDEAGYYCQSDDTSNVVFGGGTKVTVL	1.62	1.26	–	–	–	–	–
PBI #30af7 hIgG4 (antibody, V domains shown) VH: QVQLQESGGGLIQPGGSLRLSCAASGFTTSSSDYAMSWVRQAPGKGLEWVSSISGSGGSTYYADSVKGRFTISRDNSKNTLYVQMTSLTAEDTAVYYCAKDVGYSTYDYYYHYALDVWGQGTTVTVSS VL: QPVLTQPPSASGTPGQRVTISCSGSSSNVGSNTVNWYQQLPGTAPKLLIYSNNQRPSGVPDRFSGSKSGTSASLTISGLKTEDEAGYYCQSYDTSNVVFGGGTKVTVL	2.61	2.83	–	–	–	–	–
